The results in this text go back to FireProtDB (doi:10.1074/jbc.m705677200).

For the data set the following is noted: Helicobacter pylori (strain ATCC 700392 / 26695), 25.2 °C, Urea, whole UniProt chain shown.
Where [1] appears, read: pH 2, CD, Sodium phosphate 23 mM.
Where [2] appears, read: pH 2, Fluorescence, Sodium phosphate 23 mM.
Where [3] appears, read: pH 5, Fluorescence, Sodium acetate 16 mM.

B1: Flavodoxin wild type, O25776 (protein)
chain: MGKIGIFFGTDSGNAEAIAEKISKAIGNAEVVDVAKASKEQFNSFTKVILVAPTAGAGDLQTDWEDFLGTLEASDFATKTIGLVGLGDQDTYSETFAEGIFHIYEKAKAGKVVGQTPTDGYHFEASKAVEGGKFVGLVIDEDNQDDLTDERISKWVEQVKGSFA
For the protein B1, the denaturant m value runs as follows: under setting [1], 1.28 kcal/mol/M; under setting [2], 1.35 kcal/mol/M; (pH 5, CD, Sodium acetate 16 mM) 2.24 kcal/mol/M; under setting [3], 2.32 kcal/mol/M; (pH 7, CD, MOPS 30 mM) 2.11 kcal/mol/M; (pH 7, Fluorescence, MOPS 30 mM) 2.18 kcal/mol/M. Besides, the denaturant m value (pH 9, CD, CHES 35 mM) turned out to be 2.19 kcal/mol/M and the denaturant m value (pH 9, Fluorescence, CHES 35 mM) stood at 2.03 kcal/mol/M. Further, the “denaturant midpoint (higher = more stable)” value (“denaturant midpoint” below) under setting [1] amounted to 0.89 M; the “denaturant midpoint” value under setting [2] was found to be 0.84 M; the “denaturant midpoint” value (pH 5, CD, Sodium acetate 16 mM) turned out to be 4.1 M; the “denaturant midpoint” value under setting [3] worked out at 4.04 M; the “denaturant midpoint” value (pH 7, CD, MOPS 30 mM) was 2.94 M; the “denaturant midpoint” value (pH 7, Fluorescence, MOPS 30 mM) stood at 3.01 M. In addition, the “denaturant midpoint” value by setting is: (pH 9, CD, CHES 35 mM) 2.16 M; (pH 9, Fluorescence, CHES 35 mM) 2.21 M. Further, the unfolding free energy came out at 1.14 kcal/mol under setting [1]; 1.13 kcal/mol under setting [2]; 9.2 kcal/mol (pH 5, CD, Sodium acetate 16 mM); 9.37 kcal/mol under setting [3]; 6.2 kcal/mol (pH 7, CD, MOPS 30 mM); 6.56 kcal/mol (pH 7, Fluorescence, MOPS 30 mM). For the same protein, the unfolding free energy is 4.73 kcal/mol (pH 9, CD, CHES 35 mM) and 4.5 kcal/mol (pH 9, Fluorescence, CHES 35 mM).
